Measured values reported in the DeepSol protein solubility set.

assay: soluble on expression in E. coli; label from the status in PepcDB or PDB records

Row | Sequence | soluble on expression in E. coli
1 | MCECYQFYRMRITQSAQICLSVIKKSQKTGFGPNRLQRKGTHFVGTEPPVLKYHILQDKKPNEEYGLQGTNHELPGTGKVHSKLPTKVHMKKDKVYAWCSCGYSGSQPLCDGSHNSIRIPDLKLKPVRFIPDKDMTVWLCNCKQTNNRPFCDGSHKTVTDEDKKAGLFD | not soluble
2 | MEEKKTESATKNVKKVNLLDHIAIKHLLDESVSDIVTSRGYKEDGSFTSTGLVVSSKLPRFSDQYTLTIDSADPQSISAGKSVQFTKSVTQWLTKDGVLVEGLFWKDVEALVKEYTEAGEPKKKR | not soluble
3 | MCYHLIIDSFIDRISRMHTQRGLEVTTGSIEAVDSINYFHEQVLSSGQNAIQILDSAKKHTDNLLIQTYAAAFYLYAQEDVANEQASDYLQSAFRLLTSANEREKLIFEAVTNWSKRDYANAISLLVTLLERYPRDTLALKFMEWLFYCTGQAFNAEYFLKVCDKCAPENQDESHFLAIHSFALELCGQYSKAKEMAEEAITMNLLTPWAHHTLAHVHLLTSDITGGINRLRDLQKTWEDILPLLKGHNTWHLALFYLANRNEEEVKKLYPHISGALPDTVLEQLDTISLLWRMDMAGLPQDRLLNQVVDHLSTHPLEYYTGFTNAHFIYCLVKSGYKNEADESLKRMKFYACSPSSDALWGDVVLPLCQGIYAFADADYKTALMLMEPVIGECAQLGGSDAQIELFFQTYLLVLIHNKQKDKALQFFTEHLKYYNNTPLSDWWFQSANKA | not soluble
4 | MYNSMDEVPVSLHASIDTGDGEFDMNALISNNAHILFIVLDSLRYDIALQEQTAGNTPNLNHYGQWTKCEAAGNFTWPSHHAMFSGFMPKPIDDTVNQTMLFFPKDIGLGRKGPKNAFAFDDATWIKSLENKGYQTICIGGVSFFNNRSGMGKVFPSMFKESYWHPRFACTVKESMDNQIHYIQKIMAERAGSQPVMMYINIDTIHYPNHFYVEGAAPGDTVETHAAALRYIDARIDGLLNIFRQTGGATFVIVCSDHGTCYGEDGKYFHSFNHPIVNTVPYMHFLLSGNHLEHHHHHH | soluble
5 | MNVVIVRYGEIGTKSRQTRSWFEKILMNNIREALVTEEVPYKEIFSRHGRIIVKTNSPKEAANVLVRVFGIVSISPAMEVEASLEKINRTALLMFRKKAKEVGKERPKFRVTARRITKEFPLDSLEIQAKVGEYILNNENCEVDLKNYDIEIGIEIMQGKAYIYTEKIKGWGGLPIGTEGRMIGILHDELSALAIFLMMKRGVEVIPVYIGKDDKNLEKVRSLWNLLKRYSYGSKGFLVVAESFDRVLKLIRDFGVKGVIKGLRPNDLNSEVSEITEDFKMFPVPVYYPLIALPEEYIKSVKERLGL | soluble
6 | MGSDKIHHHHHHMDEVESNFLTVGTLNRYLSAKFVHDPYLKQVSLTGEIFGYKISSGSAYFELRDEDESSIRAYVSPTILRGFPFDFKSGDKVNLVADVRLYGKRAYASLFIFSMQPAGLGELYLKLAELKNKLTKEGIFNRPTKELNYFPKKIAVITSKTGAVIHDISSTIGHRNPNLKIELFESSVQGDSAVKELVSAVKKADQSDADAIIIARGGGSTLDLWPFNDEQLVRLLSSLSKPVISSIGHETDVTLTDLAADYRVETPTAAANKVTPAILDYRNNLDQLTALMSVDIKQLLQKNLNRFEYLANSPALKSFDQVFFNHEQKLQNLNLRLANSFAGEFQKNIQQFANLTAKLDALSPLKVLDRGFSLTFKGDRLIKNAQQLKEKDHIKILFAKGSALAEIKEISDDRRI | not soluble
7 | TKDFSWNTDFTFSFYRDKWKERDENWSPNPYDMYNAPLRGYYMYLSDGLIQPGEEVSWMPGALPGQVKLKDIDGYAYNED | not soluble
8 | TQDMELNINANITFQQNKLLSLSGMYNGELISAPEYKSLASLDGAGFHGGYNHIVYQVVGQPLGVFYLPRANGLVSDGNGGYTYDIADLNGGGVSLEDGEDRYVAGQAVPKTILGSNLSFRYKRFDISVQINGAFGHKIYNGTSLTYMNMNIFPDYNVMQEAPARNIKDQTATDYWLENGAYVNFDYVTLGWNVPIEKVQKLKKYVRSLRLAFTVNNLATISGYSGLSPMINSSTVNSTLGLDDKRGYPLARTYTLGLSINF | not soluble
9 | MLKIQAYFNETADLPCQFANSQNQSLSELVVFWQDQENLVLNEVYLGKEKFDSVHSKYMGRTSFDSDSWTLRLHNLQIKDKGLYQCIIHHKKPTGMIRIHQMNSELSVLA | soluble
10 | MSDPRDLMSEFQKLRVETSKIQNEFKEKPGYVEDKLHKNTQEICQQILKKQGKSQKSQENQNAFIENLMSELKTAKSKLNETENQISDLHEATKQQESQANLWNDLVAKISDKNLEMMLKIQKSQDLMIMKMQEGSAVQDVPIETEKSAKNGPFFEILVIWTDSRGPVVPGNHGKLRVCGSDTIRQIKPRINSLAGIDTISFRTFCDDKFLEDDHTLAHYNIREGSTICVFFH | not soluble
11 | MVATEKKFVLTHIFKNVSKMKDSDFLYSPEENLFNVPWFMLIARKDDHFGVFLHCQKINEAGPTWSVDTQNTIRVKTLSASKVSSEIFKHKFEKNEGWGYFKFISWDTLTNDYLIDDCIIVEITVKITKMTGIPKKVLRSFDKSAEEFSDVVLEVGGKKFYVLKKFLASHSTYFNALLLGKPEMSEVTIQDTSSVDFQNLLEVLYGEPAIDEDTIDGILTLAHKFTMPLPIQKCEEFLIEKSEKSVKEKLKLVKKYQLKSLKTHCLSKINTPYGINALMPFDHNDMDPEVVMALLKKSLATDEFYLDCIMRFTVICLIFITVGLII | not soluble
12 | MGSDKIHHHHHHMKGMDIMNSAMILEISWFQEHGIMRRAVNRGLARKSSHPSRIGIDEKYYGKHHRYITLVFNHDDHSVEFISLDRKQESLDLYYRSIGEEASGSIEAAPMDMWDPFIVSTKSNVTDAESKIVFDRFHVMKHMNMALDDVRWMESRMAEYKEMFRKTRCLWLYSPENLPDKYGERYEILKESDLKTARVYAIKENLRNLWNCSGEDEARSF | not soluble
13 | MATFSISAMAAQCGVTTANIRSWERYGLLQPTKDEAGNRFYCIEDAIRIQHIIDALSKGFSLKEIKPALYGEETHCRSGWLFYQEEILAQCRKFEPAKLRKLLWRYGREIPPCIVIESILRPLRLWLSAGDDDARRFEKALLDTAIIEYATFQLSSVRKAPAGTMLIAAFSLNDPIELWLETIKYCSEGMRVEVIPWQAPMPDLLSTSFEHIVLWHDETLTPAQENLIQALKESGKFSLHVKNGSGLTLLPAVYRQHEMPESMQHVAPQIHANGYEKSGTAR | not soluble
14 | ANAFLEELRPGSLERECKEEQCSFEEAREIFKDAERTKLFWISYSDGDQCASSPCQNGGSCKDQLQSYICFCLPAFEGRNCETHKDDQLICVNENGGCEQYCSDHTGTKRSCRCHEGYSLLADGVSCTPTVEYPCGKIPILEKRNASKPQGR | soluble
15 | MAHHHHHHMWRQLMCSYSSKEKLGSKIYTQKKITKREKLLGIVKPFVDENCDSAEPYVIAYYLNNPINLATLKSAYEKVGSQVLYKDPYLYVESCSHFNQQNSSAVFFKNGCMVIWSMNKQNRNKFFHFSKQFLHINSESTIDHYDFEELQVENISNKSYVNNSVIYLTSSNYRTTDKIAISFGLLSAVRLNNLEKKIEKKLFYENDQIENLKKKMKSSNLDHLSKQLFTSKITLHNLRYELNIDQDILDVPEALWELEYQKKLFLNILHIFDIKQRVDLLNHRLSWTLDYLNSFLDYVNQKHSSRLERIIIVIVGLELVLGIMQMGNTIGL | not soluble
16 | MSESFAELFEESLKSLDMQPGAIITGIVVDIDGDWVTVHAGLKSEGVIPVEQFYNEQGELTIKVGDEVHVALDAVEDGFGETKLSREKAKRAESWIVLEAAFAADEVVKGVINGKVKGGFTVDVNGIRAFLPGSLVDVRPVRDTTHLEGKELEFKVIKLDQKRNNVVVSRRSVLEAENSAEREALLESLQEGQQVKGIVKNLTDYGAFVDLGGVDGLLHITDMAWKRIKHPSEIVNVGDEIDVKVLKFDRERNRVSLGLKQLGEDPWVAIKARYPEGTRVMARVTNLTDYGCFAELEEGVEGLVHVSEMDWTNKNIHPSKVVQVGDEVEVQVLDIDEERRRISLGIKQCKSNPWEDFSSQFNKGDRISGTIKSITDFGIFIGLDGGIDGLVHLSDISWNEVGEEAVRRFKKGDELETVILSVDPERERISLGIKQLEDDPFSNYASLHEKGSIVRGTVKEVDAKGAVISLGDDIEGILKASEISRDRVEDARNVLKEGEEVEAKIISIDRKSRVISLSVKSKDVDDEKDAMKELRKQEVESAGPTTIGDLIRAQMENQGLEHHHHHH | soluble
17 | MGSDKIHHHHHHMRLVQYRMPDGSRRVGRVSDDDNHLHPLDKTGSVLELAEAAIAEDMSIASLVEKRTAAATIDYDALLRNGRVLAPVDHPEPARFLVTGTGLTHTGSAAARNQMHVLTHGDGAEESDSLKIFRMGLEGGKPGAGKIGIQPEWFFKGVGTCVVPPGAPLPMPAFAKAGAEEAEIVGLYLNGPDGHPYRIGYALGNEYSDHVTEGENYLYLAHSKLRSCSIGPELLIGDLPEEVRGHSRILRDGTVIWEQEFLSGEAHMSHSIANLEHFHFRYPMHRRAGDLHAYFFGAAVMSYASGIKTASGDEYEIQAQAFGKPLRNRMVSVPDEGLVTVTPL | not soluble
18 | MKKARRRIDVDELFEGVRRGDRTLISRAITLLESTAPAHRVLAQELLVKLLPFSGKALRVGITGVPGVGKSTFIEALGMKLIGDGHKLAVLAIDPSSTKTRGSILGDKTRMAKLAREDNAFIRPSPSAGTLGGVAKATRESMVVFEAAGYDVILVETVGVGQSEVAVSQMVDCFTFLALAGAGDQLQGIKKGILEMADLVAINKADGPNLKNAKRAARELAAAMRMVRQENDLWHPPTITMSAVEHEGVDEFWEHVQNHNKAMLESGVFEHNRREQQVQWMWSMVHETLLQRLNTDPNVVEVKKLVEDQLRHAHITPTLAAERILKAFDHVTAD | not soluble
19 | MQRLFVYGSLGPGRPNEHLMQKIGGQWQAASLRGRLLEKGWGAGMGFPGLAIDADGEEIHGHVFVSDRLAEHWPALDEFEGSEYRRVATRVTLADGAQVDAYVYALRD | not soluble
20 | MGSDKIHHHHHHMKKMLKPFYNWLRLKLQFLEEAYYFWLLLCRHNASVNTEASMKKMQYILLREAHVIEKGMSMRNPRKGFGQAKILIMLQNLNRYYDLYSTEDLDFLKFPISTVGSYIQYTNEMGIDITKIEQQYLNLVSRTGFQNLNRHSGIESIAKSDILKECNKTFESLLYSRHSIRYFDNKIPSKEMLEKALKLASRTPSACNRQGWLTHIFIGEKSYSLLQWQGGSNGFEKEIHCSILVTANLNAFLSYEVHQAYVDGGLYAMNLLNALHSLGLGTIPLSCGFGYSKLRMLKKQFYIPENEVPIMIIGVGELLDHFNVAISMRRDVSTTNTYHY | not soluble
21 | GPHMDAATLTYDTLRFAEFEDFPETSEPVWILGRKYSIFTEKDEILSDVASRLWFTYRKNFPAIGGTGPTSDTGWGCMLRCGQMIFAQALVCRHLGRDWRWTQRKRQPDSYFSVLNAFIDRKDSYYSIHQIAQMGVGEGKSIGQWYGPNTVAQVLKKLAVFDTWSSLAVHIAMDNTVVMEEIRRLCRTSVPCAGATAFPADSDRHCNGFPAGAEVTNRPSPWRPLVLLIPLRLGLTDINEAYVETLKHCFMMPQSLGVIGGKPNSAHYFIGYVGEELIYLDPHTTQPAVEPTDGCFIPDESFHCQHPPCRMSIAELDPSIAVGFFCKTEDDFNDWCQQVKKLSLLGGALPMFELVEQQPSHLACPDVLNLSLDSSDVERLERFFDSEDEDFEILSL | soluble
